# Experimental data taken from patent US20100048478A1 (University of Pennsylvania, published 2010).
# T1: murine TWEAK, full length, on transiently transfected CHO cells (murine, UniProt O54907 1-249)
# T1 construct: whole, on cells; also called cell surface TWEAK
# T1 sequence (looked up): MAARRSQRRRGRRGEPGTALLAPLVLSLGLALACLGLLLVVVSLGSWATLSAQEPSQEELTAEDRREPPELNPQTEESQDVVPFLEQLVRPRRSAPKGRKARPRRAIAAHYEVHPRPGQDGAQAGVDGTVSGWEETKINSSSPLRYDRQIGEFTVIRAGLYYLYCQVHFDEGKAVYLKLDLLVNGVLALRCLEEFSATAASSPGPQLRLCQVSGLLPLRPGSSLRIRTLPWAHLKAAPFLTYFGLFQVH
# B1: soluble TRAIL (aa 118-291 of murine TRAIL) (ligand, UniProt P50592 118-291, looked up)
# chain: PRGGRPQKVAAHITGITRRSNSALIPISKDGKTLGQKIESWESSRKGHSFLNHVLFRNGELVIEQEGLYYIYSQTYFRFQEAEDASKMVSKDKVRTKQLVQYIYKYTSYPDPIVLMKSARNSCWSRDAEYGLYSIYQGGLFELKKNDRIFVSVTNEHLMDLDQEASFFGAFLIN
# notes: range 118-291
# Key:
# [1] = target: TRAIL receptor DR5 on SK-Hep1 human hepatoma cells (human) (UniProt O14763); assay: cell-based or functional assay
# [2] = target: T1, murine TWEAK, full length, on …; assay: flow cytometry on CHO cells transiently transfected with murine TWEAK, 4 C, detected with anti-mouse TRAIL Ab
# Protocol: B) CHO cells were transiently transfected with a murine TWEAK cDNA expression construct, and after 48 h, were incubated at 4° C. with purified Fn14-TRAIL or rTRAIL in sodium azide-containing buffer. The presence of membrane-bound TWEAK on transfectants, and the binding of Fn14-TRAIL to them, was verified by flow cytometry, using anti-mouse TWEAK Ab (B.1) and anti-mouse TRAIL Ab (B.2-5) as detecting Ab, respectively. (B.1) TWEAK is expressed on transfected CHO cells, as detected using anti-TWEAK Ab (solid black line) versus isotype control (filled histogram); (B.2) TRAIL is not detectable on CHO cells, when analyzed using anti-TRAIL Ab (solid black line) versus isotype control (filled histogram). (B.3 and B.4) TRAIL epitopes are enhanced when Fn14-TRAIL is added to TWEAK-expressing, as opposed to TWEAK-negative, CHO cells. Anti-TRAIL Ab and isotype control are represented by solid black line and filled histogram, respectively. […] Isotype control is shown as filled histogram.
# To validate the identity of expressed Fn14-TRAIL, its ability to bind to Fn14's ligand, TWEAK, was assessed. To this end, CHO cells were transiently transfected with a murine TWEAK cDNA expression construct (in the pcDNA3 vector), and after 48 h, transfectants were incubated at 4° C. with purified Fn14-TRAIL or soluble TRAIL.
# Sequence of TRAIL receptor DR5 on SK-Hep1 human hepatoma cells (human) (O14763 56-440): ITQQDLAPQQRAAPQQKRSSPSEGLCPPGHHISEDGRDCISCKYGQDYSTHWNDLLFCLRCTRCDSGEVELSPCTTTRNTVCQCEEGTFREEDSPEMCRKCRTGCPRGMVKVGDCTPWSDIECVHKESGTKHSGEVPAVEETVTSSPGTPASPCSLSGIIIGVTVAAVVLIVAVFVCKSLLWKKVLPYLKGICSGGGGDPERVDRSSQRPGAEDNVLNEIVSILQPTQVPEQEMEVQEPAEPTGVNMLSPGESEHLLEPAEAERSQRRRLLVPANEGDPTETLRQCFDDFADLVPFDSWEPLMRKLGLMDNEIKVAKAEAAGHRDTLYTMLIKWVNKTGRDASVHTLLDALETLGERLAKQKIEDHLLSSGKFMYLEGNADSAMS
Molecule,"killing effect on SK-Hep1 cells (24 h, trypan blue live/dead count) [1] [nM]",binding result [2]
purified untagged human Fn14-TRAIL protein,0.04,
B1,,no binding
